Source: the RNAGym collection of RNA variant scans (doi:10.1093/nar/gkz1192)

B1: CPEB3 Ribozyme (parent)
chain: UAACAGGGGGCCACAGCAGAAGCGUUCACGUCGCAGCCCCUGUCAGAUUCUGGUGAAUCUGCGAAUUCUGCUGUAUAUCUC

Variants of: B1
Test: self-cleavage, relative activity (ratio to wild type); higher = more cleavage; in vitro, sequencing
How it was run: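 Relative activity compares each variant's cleaved/total read fraction with that of the unmutated ribozyme. To get these fractions, barcoded CPEB3 ribozyme libraries from rounds of error-prone PCR were transcribed with T7 RNA polymerase for 5 hours at 37°C and then given 15 min of DNase I treatment before EDTA was added. The RNAs were reverse transcribed with template switching and sequenced on Illumina, and DNA sequencing linked barcodes to variants. A minimum of 5 reads applied, and three batches were averaged.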

Variant	self-cleavage
A15U U74A	1.02
A15U U74C	0.97
A15U U74G	0.97
G16A U41A	0.1
G16A U41G	0.12
G16A U41C	0.49
A15U G61A	0.37
A15U G61C	0.07
A15G C62U	0.26
A15G C62A	0.17
A15U C17G	0.36
A15U C17U	0.21
A15U C17A	0.6
G16C A35G	0.83
G16A U60C	0.19
A15U A28U	0.38
A15U A28C	0.33
A15U A28G	0.22
G16A C27A	0.17
A15G C37U	0.81
A15G G53A	1.02
A15G G53C	1.05
A15G G53U	1.02
A15G C39G	0.29

Variant	self-cleavage
A15G C39A	0.32
A15G C39U	0.98
A15U U72C	0.87
A15U U72A	1.09
A15U U72G	0.91
G16C A64U	0.28
A15G G24U	0.12
A15G G24A	0.39
G16A U67C	0.11
G16A U67A	0.34
A15U G19U	0.23
A15U G19C	0.17
A15U C62A	0.14
A15U C62U	0.18
A15U A20G	0.41
A15U A20U	0.27
G16C C37U	0.16
A15U G73U	1.17
A15U G73A	1.24
G16A C39A	0.33
G16A C39U	0.15
A15U U78C	0.7
A15U U78A	0.48
A15G U49C	0.28

Variant	self-cleavage
A15G U49A	0.61
A15G U49G	0.52
G16C A45G	0.42
G16C A45U	0.13
A15U C40A	0.31
A15U C40U	0.55
A15U C40G	0.18
A15U C38A	0.2
A15U C38G	0.25
A15U C38U	0.67
A15G C50U	0.33
A15G C50G	0.57
A15G C50A	0.4
A15U C23U	0.23
A15U C23A	0.18
G16A U25C	0.18
G16A U25A	0.36
G16A U43A	0.74
G16A U43C	0.39
A15G U48C	0.46
A15G U48A	0.35
A15G U48G	0.72
A15G G73A	1.19
A15G G73C	1.16

Variant	self-cleavage
A15U A35G	1.24
A15U A35U	0.51
G16C C50U	0.18
A15U A45G	0.49
A15U A45C	0.18
A15U A45U	0.33
A15U G70C	0.17
A15U G70A	0.32
A15U U76C	0.88
A15U U76A	1.17
G16C A18U	0.28
A15G C71U	0.28
A15U G33U	0.52
A15U G33A	0.17
G16C A20G	0.11
A15G U76C	0.89
A15G U76A	0.94
G16C A21U	0.1
G16C A21G	0.32
G16C	0.35
G16A	0.34
A15U U69A	0.25
A15U U69C	0.35
A15U U69G	0.34

Variant	self-cleavage
G16A A35G	1.02
A15U A21G	0.35
A15U A21U	0.19
A15U A21C	0.36
A15G U26C	0.41
A15G U26A	0.71
A15G U26G	0.55
A15G U74C	1.21
A15G U74G	1.14
A15G U74A	1.14
A15G G33A	0.24
A15G G33C	0.29
A15G G33U	0.12
A15U U80C	1.03
A15U U80A	1.01
G16A A57G	0.27
A15U U58A	0.16
A15U U58C	0.26
A15G C40U	0.67
A15G C40A	0.41
A15G C40G	0.28
A15G U41A	0.23
A15G U41C	0.74
A15G U41G	0.38

Variant	self-cleavage
A15U C71U	0.33
A15U G52A	1.05
G16A U69G	0.2
G16A U69C	0.16
G16A U69A	0.19
A15U U54G	0.59
A15U U54A	0.8
A15U U54C	0.77
G16A G33U	0.18
G16C A56G	0.21
G16A A20G	0.24
G16A A20U	0.16
A15U U25G	0.46
A15U U25C	0.25
A15U U25A	0.2
A15U G24C	0.08
A15G G36A	0.34
A15G G36U	0.3
A15G U31A	0.63
A15G U31C	0.36
A15G U69C	0.3
A15G U69A	0.35
A15G U69G	0.32
A15G C59A	0.27

Variant	self-cleavage
A15G C59U	0.69
A15U G36C	0.13
A15U G36U	0.08
A15G C81G	1.09
A15G C81A	1.16
A15G C81U	1.02
A15G G55A	0.66
A15G G55U	0.65
G16C A28G	0.15
G16C A28U	0.24
G16C C23A	0.5
A15U U66C	0.23
A15U U66A	0.34
G16C A47G	0.25
A15G G70C	0.11
A15G G70U	0.18
A15G G70A	0.29
G16A U31G	0.47
G16A U31A	0.19
G16A U78A	0.52
G16A U78C	0.59
A15U	0.76
G16A U54C	0.66
G16A A45C	0.14

Variant	self-cleavage
G16A A45G	0.45
A15U C34A	0.37
A15U C34G	0.27
A15U C34U	0.29
A15G U43G	0.28
A15G U43A	1.05
A15G U43C	0.47
A15U C37U	0.29
G16C A57G	0.57
A15G C68U	0.67
A15G C68A	0.2
A15G G19U	0.28
A15G G19C	0.49
A15U C44U	0.22
A15U C44G	0.31
A15U C44A	0.32
A15U C39U	0.65
A15U C39A	0.24
A15U U31C	0.35
A15U U31A	0.45
A15U U31G	0.39
A15U A77G	0.87
A15U A77C	0.41
A15U A77U	0.71

Variant	self-cleavage
G16A U72A	0.36
G16A U72C	0.79
G16A U72G	0.16
A15G U58C	0.44
A15G U58A	0.32
A15G G30C	0.27
A15G G30A	0.33
A15G G30U	0.42
G16A U51A	0.57
G16A U51C	0.18
A15G U78C	0.78
A15G U78A	0.96
A15G U78G	1.06
A15U U26G	0.44
A15U U26A	0.54
A15U U26C	0.25
A15U G30C	0.15
A15U G30U	0.15
A15U G42A	0.61
A15U G55U	0.68
A15U G55A	0.46
A15U U48A	0.17
A15U U48C	0.33
A15U U48G	0.35

Variant	self-cleavage
A15U U60A	0.32
A15U U60C	0.31
G16A A28U	0.21
G16A A28G	0.25
A15G G42A	0.15
A15G G42C	0.25
A15G U66G	0.35
A15G U66A	0.45
A15G U66C	0.37
A15G G22U	0.46
A15G G22A	0.22
G16A A21G	0.16
G16A A21U	0.2
G16A A47G	0.5
A15U U41C	0.92
A15U U41G	0.26
A15U U41A	0.17
A15U A47C	0.29
A15U A47G	0.51
A15U A47U	0.34
A15U G16A	0.57
A15U G16U	0.3
A15G U60C	0.33
A15G U60G	0.34

Variant	self-cleavage
A15G U60A	0.35
G16A C23A	0.08
A15G U51C	0.74
A15G U51G	0.62
A15G U51A	0.9
A15G G52C	0.88
A15G G52A	0.99
A15U C32A	0.24
A15U C32U	0.4
A15U C32G	0.06
A15G U72G	0.46
A15G U72A	0.48
A15G U72C	1.16
A15U C27U	0.19
A15G C44U	0.32
A15G C44A	0.28
A15U A56U	0.47
A15U A56G	0.46
G16A U49A	0.4
A15U U43G	0.25
A15U U43A	0.88
A15U U43C	0.41
A15U A65U	0.37
A15U A65G	0.29

Variant	self-cleavage
A15U U49A	0.64
A15U U49G	0.36
A15U U49C	0.15
A15G G61A	0.34
A15U U67A	0.2
A15U U67C	0.22
A15U U67G	0.11
A15U A57U	0.15
A15U A57G	0.66
G16A C79A	0.81
A15G G46A	0.38
A15G G46U	0.18
G16A U26A	0.34
G16A U26C	0.13
A15U G22C	0.06
A15U C29U	0.5
G16A G30A	0.06
G16A G30C	0.05
G16A C37U	0.24
A15G G16A	0.33
A15G G16U	0.25
A15U C68U	0.26
A15U C59G	0.1
A15G U25A	0.28

Variant	self-cleavage
A15G U25C	0.28
A15G U25G	0.4
A15U C81U	1.14
A15U C81A	0.32
G16A A77G	0.54
A15U C79U	1.14
A15U C79A	1.03
A15U C79G	1.08
A15U A64U	0.37
A15U A64G	0.54
A15G U67G	0.4
A15G U67A	0.35
A15G U67C	0.24
A15G U54C	0.87
A15G U54G	0.96
A15G U54A	0.95
A15U C50G	0.26
A15U U51A	0.82
A15U U51C	0.54
A15U U51G	0.89
G16A A64U	0.19
G16A A64G	0.45
A15U A75U	0.87
A15U A75G	0.67

Variant	self-cleavage
G16A U58A	0.12
A15G C79G	1.26
A15G C79U	1.04
A15G C79A	1.19
G16A G73C	0.86
G16C A77G	0.21
A15G C38U	0.81
A15G C38A	0.42
A15G U80C	1.06
A15G U80A	1.07
A15G U80G	0.86
G16A A56G	0.4
G16A A56U	0.13
G16A U74A	1.21
G16A U74C	0.77
A15U G63A	0.67
A15U G63U	0.93
A15U A18U	0.25
A15U A18G	0.29
A15U A18C	0.35
A15G G63A	0.79
A15G G63C	0.86
